Measured values taken from patent publication US20170152308A1 (Biogen, published 2017).
Where two headings read alike, the source gives them in different places. One block for each binder: values may come before it.

Legend:
[1] = target: T1, recombinant full-length His-tagged human TDP-43 (2-414) (human, UniProt Q13148 2-414); test: direct ELISA, coated antigen
T1 construct: Amino terminal His tag, made in E. coli, purified in 8 M urea; also called full length TDP-43; full-length TDP-43
Procedure: (§1) The half maximal effective concentration (EC₅₀) of the human-derived TDP-43-specific antibodies for human TDP-43 and their target target-specificity was determined substantially as described in Example 2 above. Briefly, 96 well microplates (Corning) were coated with recombinant full length TDP-43 (Biogen Idec, USA), Escherichia coli extract and BSA (Sigma, Buchs, Switzerland), diluted to a concentration of 5 μg/ml in carbonate ELISA coating buffer (pH 9.6) overnight at 4° C. […] Non-specific binding sites were blocked for 1 hr. at room temperature with PBS containing 2% BSA (Sigma, Buchs, Switzerland). Human TDP-43-specific antibodies were diluted to the indicated concentrations and incubated 1 hr. at room temperature. Binding was determined using a donkey anti-human IgGγ-specific secondary antibody conjugated with HRP (Jackson ImmunoResearch, USA), followed by measurement of HRP activity in a standard colorimetric assay. EC₅₀ values were estimated by a non-linear regression using GraphPad Prism software (San Diego, USA).

[2] = target: T2, TDP-43 in human FTLD-U (and ALS) patient tissue sections (human, UniProt Q13148 1-414, limits assumed); test: immunohistochemistry, FTLD-U case hippocampus
T2 construct: Target of immunohistochemistry; the forms present are not defined; also called pathologic TDP-43; cytoplasmic, nuclear, neuritic TDP-43 in FTLD-U case tissue

[3] = target: T3, 6xHis-SUMO-TDP-43 (1-414), properly folded full length (human, UniProt Q13148 1-414); test: capture ELISA, antigen held by anti-6xHis antibody
T3 construct: Purified with KSCN and arginine, monomeric; captured on the plate by an anti-6xHis antibody; also called folded full-length TDP-43; 6xHis/SUMO tagged full length TDP-43; not shown: N-terminal 6xHis and SUMO tags from a modified pET19-b vector
Procedure: (§2) Non-specific binding sites were blocked for 1 hr at RT with PBS containing 1% BSA (Sigma) and 0.05% Tween-20 (Fisher Scientific). 6×His-SUMO-TDP43 proteins at a concentration of 1.7 μM were allowed to bind to antibody-coated plates for 1 hr at RT in PBS buffer containing 1% BSA, 300 mM arginine and 0.1% PEG 5000, pH 7.5. Plates were incubated for 1 hr at RT with human antibodies of present invention, titrated in a three-fold dilution series, followed by HRP conjugated anti-human IgG Fc γ (Jackson ImmunoResearch) in PBST containing 1% BSA. HRP activity was measured in a standard colorimetric assay. EC₅₀ values were calculated using a four-parameter logistic curve fit on Softmax pro software (Molecular Devices).
(§3) We measured the binding affinity of the human-derived TDP-43 specific antibodies provided herein to properly folded 6×His/SUMO tagged TDP-43 using a capture ELISA in which native TDP-43 was immobilized without direct adsorption on the surface of the ELISA plate. This was achieved by immobilizing an anti 6×His antibody which then captured native TDP-43. […] After this immobilization step, binding by human antibodies was tested in regular buffers without interference of TDP-43 aggregation.

[4] = target: T4, His-huTDP-43 domain II (amino acid residues 99-204) (human); test: direct ELISA, coated antigen
T4 construct: Amino terminal His-tagged fragment, E. coli
T4 chain: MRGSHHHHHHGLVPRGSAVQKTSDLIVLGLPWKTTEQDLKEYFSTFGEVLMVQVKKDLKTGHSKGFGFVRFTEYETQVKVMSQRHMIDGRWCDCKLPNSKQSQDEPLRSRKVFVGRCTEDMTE

[5] = target: T5, 6xHis-SUMO-TDP-43 (220-414) (human, UniProt Q13148 220-414); test: capture ELISA, antigen held by anti-6xHis antibody
T5 construct: Captured on the plate by an anti-6xHis antibody; also called 6xHis/SUMO tagged truncated TDP-43; not shown: N-terminal 6xHis and SUMO tags from a modified pET19-b vector
Procedure: as §2, §3

[6] = target: T6, His-huTDP-43 domain I (amino acid residues 2-106) (human); test: direct ELISA, TDP-43 fragments coated at 6.6 ug/ml, OD 450
T6 construct: Amino terminal His-tagged fragment, E. coli; also called N-terminal domain
T6 chain: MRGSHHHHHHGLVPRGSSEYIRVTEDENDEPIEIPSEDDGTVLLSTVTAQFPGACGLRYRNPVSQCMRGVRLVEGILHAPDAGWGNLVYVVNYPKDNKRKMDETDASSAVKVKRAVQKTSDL
Procedure: (§4) Non-specific binding sites were blocked for 1 hr. at room temperature with PBST containing 2% BSA (Sigma, Buchs, Switzerland). Antibodies were incubated 1 hr. at room temperature. Binding was determined using either a donkey anti-human IgGγ-specific antibody conjugated with HRP (Jackson ImmunoResearch, USA) or a goat-anti mouse IgG (H+L)-specific secondary antibody conjugated with HRP (Jackson ImmunoResearch, USA)., followed by measurement of HRP activity in a standard colorimetric assay.

[7] = target: T7, His-huTDP-43 domain III (amino acid residues 183-273) (human); test: Western blot, 300 ng recombinant protein per lane, primary antibody 10 nM
T7 construct: Amino terminal His-tagged fragment, E. coli
T7 chain: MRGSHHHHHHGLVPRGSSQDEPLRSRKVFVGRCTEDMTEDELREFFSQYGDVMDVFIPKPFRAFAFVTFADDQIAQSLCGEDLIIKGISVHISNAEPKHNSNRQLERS
Procedure: (§5) Non-specific binding sites were blocked for 1 hr. at room temperature with PBST containing 2% BSA (Sigma, Buchs, Switzerland). Blots were incubated overnight with primary antibodies (10 nM) followed by either a donkey anti-human IgGγ-specific secondary antibody conjugated with HRP (Jackson ImmunoResearch, USA) or a goat-anti mouse IgG (H+L)-specific secondary antibody conjugated with HRP (Jackson ImmunoResearch, USA). Blots were developed using ECL and ImageQuant 350 detection (GE Healthcare, Otelfingen, Switzerland).

[8] = target: T8, His-huTDP-43 domain IV (amino acid residues 258-414) (human, UniProt Q13148 258-414); test: as above
T8 construct: Amino terminal His-tagged fragment, E. coli, solubilized in 8 M urea; also called Glycine-rich domain
Procedure: as §5

[9] = target: T6, His-huTDP-43 domain I (amino acid …); test: Western blot
Procedure: as §5
(§6) Commercially available TDP-43 specific antibody TARDBP (M01), clone 2E2-D3 (Abnova, Taiwan) was used as positive control for human TDP-43 detection whereas, an anti-human IgG Fcγ-specific antibody was used as a negative control. Binding of the human-derived antibodies to specific TDP-43 domains was determined by Western Blot analysis.

[10] = target: T4, His-huTDP-43 domain II (amino acid …); test: Western blot
Procedure: as §5, §6

[11] = target: T7, His-huTDP-43 domain III (amino acid …); test: Western blot
Procedure: as §5, §6

[12] = target: T8, His-huTDP-43 domain IV (amino acid …); test: Western blot
Procedure: as §5, §6

[13] = target: T7, His-huTDP-43 domain III (amino acid …); test: direct ELISA, TDP-43 fragments coated at 6.6 ug/ml, OD 450
Procedure: as §4

[14] = target: T8, His-huTDP-43 domain IV (amino acid …); test: as above
Procedure: as §4

[15] = target: T4, His-huTDP-43 domain II (amino acid …); test: direct ELISA, coated antigen; direct ELISA, domain coated at 6.6 ug/ml (Example 7, FIG. 5H)
Procedure: as §4
Binding of the human-derived antibodies was determined by direct ELISA.

[16] = target: T7, His-huTDP-43 domain III (amino acid …); test: direct ELISA, coated antigen
[17] = target: T1, recombinant full-length His-tagged …; test: direct ELISA, coated antigen; remark: listed apart in the source
Procedure: as §1

T8 sequence (Q13148 other isoform, or with tags, fused parts or gaps limits assumed): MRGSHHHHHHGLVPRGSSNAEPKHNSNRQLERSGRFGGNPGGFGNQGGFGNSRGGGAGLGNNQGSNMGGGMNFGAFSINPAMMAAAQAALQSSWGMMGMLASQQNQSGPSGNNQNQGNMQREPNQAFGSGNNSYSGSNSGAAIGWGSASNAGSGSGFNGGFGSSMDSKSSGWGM
T3 sequence (Q13148 whole entry): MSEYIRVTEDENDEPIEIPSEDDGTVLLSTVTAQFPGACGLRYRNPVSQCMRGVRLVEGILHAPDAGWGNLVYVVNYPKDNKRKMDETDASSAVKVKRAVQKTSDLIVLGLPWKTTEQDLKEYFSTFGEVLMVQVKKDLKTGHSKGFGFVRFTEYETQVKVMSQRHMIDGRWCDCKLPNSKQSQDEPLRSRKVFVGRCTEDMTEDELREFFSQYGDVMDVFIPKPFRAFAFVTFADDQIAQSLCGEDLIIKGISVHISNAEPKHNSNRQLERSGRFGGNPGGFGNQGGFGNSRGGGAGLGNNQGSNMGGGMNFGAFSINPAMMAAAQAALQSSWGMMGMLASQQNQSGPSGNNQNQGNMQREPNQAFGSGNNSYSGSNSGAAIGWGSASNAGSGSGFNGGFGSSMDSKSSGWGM
T5 sequence (Q13148 220-414): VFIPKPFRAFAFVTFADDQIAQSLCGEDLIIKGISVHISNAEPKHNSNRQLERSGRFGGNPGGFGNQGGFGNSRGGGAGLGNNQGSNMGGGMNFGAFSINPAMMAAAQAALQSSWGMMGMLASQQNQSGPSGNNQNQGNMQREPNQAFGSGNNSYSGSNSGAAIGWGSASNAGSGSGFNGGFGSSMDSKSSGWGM
T2 sequence (Q13148 whole entry): as the sequence (Q13148 whole entry) above

B1: NI-205.58E11 (antibody, human IgG1, V domains shown)
VH: EVQLLESGGGLVQPGGSLRLSCAASGFTFSSYSMSWVRQAPGKGLEWVATVGYGGTIYYADSVKGRFTISRDNSKNTLYLEMNSLRAEATAVYYCAKANYGGNRFGLDVWGQGTTVTVSS
VL: QSALTQPPSASGSPGQSVTISCTGTSSDVGGYNYVSWYQHQPGKAPKLMIYEVSKRPSGVPDRFSGSKSGNTASLTVSGLQAEDEADYYCSSYAGSNNLGVFGTGTEVTVL
notes: Human-derived
binding result [1]: no binding | binding result [2]: no binding (tested: 50 nM) | binding result [3]: no binding

B2: NI-205.31C11 (antibody, human IgG1, V domains shown)
VH: QVQLVESGGGVVQPGRSLRLSCVASGFTFDNYGMHWVRQAPGKGLEWLAVISYGGDHQFYGDSVKDRFTISRDNSKNTAYLQMHSLRPDDTAVYYCATGVTPDFWGQGTLVTVSS
VL: DVVMTQSPLSLPVTLGQPASISCRSSQSLVHSDGNTYLNWFQQRPGQSPRRLIYKVSHRDSGVPDRFSGSGSGTDFTLKISRVEAEDVGVYYCLQGTHWPPFTFGQGTKLEIK
notes: Human-derived
binding result [4]: binds | EC50 [1]: 11 nM | EC50 [3]: 21.1 nM | binding result [5]: no binding | binding result [6]: no binding | binding result [7]: no binding (tested: 10 nM) | binding result [8]: no binding (tested: 10 nM)

B3: NI-205.20A1 (antibody, V domains shown)
VH: EVQLVESGGGLVQPGGSLRLSCAASGFTFSSYRMNWVRQAPGKGLEWVSYISTSSSTIYYADSVKGRFTISRDNAKNSLYLQMNSLRAEDTAVYYCARAFDYWGQGTLVTVSS
VL: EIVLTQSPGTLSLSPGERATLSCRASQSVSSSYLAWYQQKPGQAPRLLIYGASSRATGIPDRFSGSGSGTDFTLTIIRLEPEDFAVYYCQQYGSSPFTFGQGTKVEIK
notes: Human-derived
binding result [9]: no binding (tested: 10 nM) | binding result [10]: no binding (tested: 10 nM) | binding result [11]: no binding (tested: 10 nM) | binding result [12]: no binding (tested: 10 nM) | binding result [1]: no binding | binding result [2]: no binding (tested: 50 nM) | binding result [3]: no binding

B6: NI-205.68G5 (antibody, human IgG1, V domains shown)
VH: QVQLVESGGGVVQPGRSLRLSCAASGFTFSSYGMHWVRQAPGKGLEWVAIIYYDSSQRYYADSVKGRFTISRDNSKNALYLQMNSLRAEDTALYYCARDLPFHYHRSASFAPSDTWGQGTLVTVSS
VL: EIVLTQSPGTLSLSPGERATLSCRASQAVTNNYLAWYQQKPGQAPRLLVYAASSRATGIPDRFYGSGSGADFTLTISRLEPEDFAVYYCQQYGTSPITFGQGTRLEIK
notes: Human-derived
binding result [9]: no binding (tested: 10 nM) | binding result [10]: no binding (tested: 10 nM) | binding result [11]: no binding (tested: 10 nM) | binding result [12]: no binding (tested: 10 nM) | EC50 [17]: > 100 nM | EC50 [1]: > 100 nM

Results, then the binder that gave them:

EC50 [1]: 8.2 nM | EC50 [3]: > 120 nM | binding result [5]: no binding | binding result [6]: no binding | binding result [13]: no binding | binding result [14]: no binding | binding result [15]: binds
B4: NI-205.38H2 (antibody, human IgG1, V domains shown)
VH: EVQLVESGGDLVQPGGSLRLSCTASGFNLGDYWMHWVRQVPGKGLVWVSRISSDGASVSYADFVEGRFTISRGNARNTLFLELNSLRLDDTAVYYCAMGVVWGQGTLVTVSS
VL: SYELTQPPSVSVSPGQTATISCSGDALPKRYAYWYKQKSGQVPVLIIYEDNKRPSGIPARFSGSSSGTMATLTITGAQVDDEADYYCYSSDNSDTYSVFGGGTKLTVL
notes: Human-derived

binding result [16]: binds | EC50 [1]: 2.6 nM | EC50 [3]: 46 nM | EC50 [5]: 20 nM | binding result [6]: no binding
B5: NI-205.98H6 (antibody, human IgG1, V domains shown)
VH: EVQLLESGGALVQPGGSLRLSCAASGLTFSRHAFSWVRQAPGKGLEWVAISSGSGGNTYYAASVKGRFTISRDESKNTLYLQMNSLRVEDTALYYCAKEVLEWSLLSRYMDVWGKGTTVTVSS
VL: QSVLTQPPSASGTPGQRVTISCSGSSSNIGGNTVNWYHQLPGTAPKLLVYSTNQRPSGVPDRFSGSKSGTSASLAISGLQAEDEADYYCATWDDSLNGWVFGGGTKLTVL
notes: Human-derived

binding result [4]: binds | EC50 [1]: 1 nM | EC50 [3]: > 98 nM | binding result [5]: no binding | binding result [6]: no binding | binding result [13]: no binding | binding result [14]: no binding
B7: NI-205.1A9 (antibody, human IgG1, V domains shown)
VH: QVQLVQSGSELKKPGASVKVSCKASGYTFTSYAMNWVRQAPGQGLEWMGWINTNTGNPTYAQGFTGRFVFSLDTSVSTAYLQISSLKAEDTAVYYCARDRIDGSSWSSWFDPWGQGTLVTVSS
VL: QSVLTQPPSVSGAPGQRVTISCTGSSSNIGAGYDVHWYQQLPGTAPKLLIYGNSNRPSGVPDRFSGSKSGTSASLAITGLQAEDEADYYCQSFDSSLSSSVFGGGTKLTVL
notes: Human-derived
